From patent US20220381793A1, “COMPOSITIONS AND METHODS FOR IDENTIFYING MHC-II BINDING PEPTIDES” (priority 2021, published 2022)
Like-named read-outs stand apart in the source and are kept apart here. No end group written: not given here. Ahx = NCCCCCC(=O)O

Tests used:
[1] = target: T1, “empty” DR4-LZ (DRA*01:01/DRB1*04:01 ectodomains with Jun/Fos leucine zippers, non-covalent heterodimer displayed on yeast through Aga2p) (human)
[2] = target: T2, “empty” DQ6-LZ (DQA1*01:02/DQB1*06:02 ectodomains with Fos/Jun leucine zippers, non-covalent heterodimer displayed on yeast through Aga2p); assay: competition; settings: chains peptide; modification not given
[3] = target: T3, “empty” DR4-LZ (DRA*01:01/DRB1*04:01 ectodomains with Jun/Fos leucine zippers, non-covalent heterodimer displayed on yeast through Aga2p); assay: flow; settings: chains peptide; modification not given
[4] = target: T1, “empty” DR4-LZ (DRA*01:01/DRB1*04:01 …); remark: listed apart in the source
[5] = target: T3, “empty” DR4-LZ (DRA*01:01/DRB1*04:01 …); assay: competition; settings: chains peptide; modification not given
[6] = target: T2, “empty” DQ6-LZ (DQA1*01:02/DQB1*06:02 …); assay: flow; settings: chains peptide; modification not given

Binder: NRALTGIAVEQDKNTQE (modifications not checked) [S764-780, P0DTC2 764-780]
- % competition [1]: < 50%

Binder: QASGNHAAGILTMGR [HCRT85-99, O43612 85-99]
- IC50 [2]: 25.2 µM

Binder: PKYVKQNTLKLAT [Bio-HA306-318 (biotin-Ahx-…)]
- Kd [3]: 33.2 µM

Binder: HGVVFLHVTYVPAQEKN (modifications not checked) [S1058-1074, P0DTC2 1058-1074]
- % competition [4]: 75%

Binder: PKYVKQNTLKLAT [non-biotinylated HA306-318]
- IC50 [5]: 66.8 µM

Binder: MNLPSTKVSWAAVK-{Ahx-biotin} [HCRT1-13-Bio (…-Ahx-biotin)]
- Kd [6]: 12.5 µM
